From patent publication US20090023895A1

B1: SEQ ID NO: 30 peptide (peptide)
peptide: WMACHSAAF
modifications: not checked
B2: SEQ ID NO: 26 peptide (peptide)
peptide: YLEENPSAG
modifications: not checked
B3: SEQ ID NO: 21 peptide (peptide)
peptide: YLEEHPSAG
modifications: not checked
B4: SEQ ID NO: 35 peptide (peptide)
peptide: IFLARSALI
modifications: not checked

What follows are binders tested against HLA-A2 molecule (a product of the HLA-A*0201 gene) (human), A*02:0.

Binder	-log Kd (Binding Experiment Data)
B1	5.79 -log Kd
B2	4.9 -log Kd
B3	5.08 -log Kd
B4	5.94 -log Kd
